The labels stand for the following.
B1: Y-34-M; numbered along this chain (parent)
chain: EASNCFAIRHFENKFAVETLICFNLFLNSQEKHY

± gives the uncertainty stated by the source.

The data set covers variants of B1. Nature of the data set: amyloid nucleation score relative to WT ADan (yeast Sup35 reporter selection) (log enrichment difference); higher = more amyloid nucleation. In outline:
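The nucleation score equals a variant's log enrichment of output over input, less the unmutated peptide's enrichment, merged over replicates by error-weighted mean with DiMSum. The variants were single amino-acid substitutions and stop truncations of a peptide fused to the Sup35 nucleation domain, expressed in a psi-minus, pin-minus S. cerevisiae strain. After 24 h of induction in SC-URA with 2% glucose and 100 μM copper sulfate, cells grew on adenine-lacking plates for 7 d at 30 °C. Variants under 200 input reads in Illumina sequencing were excluded.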
EASNCFAIRHFENKFAVETLICFNLFLNSQEKHM [Y34M]: the amyloid nucleation score amounted to 0.0777 ± 0.15. Next, EASNCFAIRHFENKFAVETLICFNLFLNSQEKHF [Y34F]: -0.228 ± 0.14; EASNCFAIRHFENKFAVETLICFNLFLNSQEKHL [Y34L]: -0.0163 ± 0.1. The same measure for EASNCFAIRHFENKFAVETLICFNLFLNSQEKHV [Y34V]: 0.031 ± 0.11. Next, EASNCFAIRHFENKFAVETLICFNLFLNSQEKHW [Y34W]: -0.636 ± 0.14. Turning to EASNCFAIRHFENKFAVETLICFNLFLNSQEKHA [Y34A], the amyloid nucleation score is -0.0498 ± 0.12.

For EASNCFAIRHFENKFAVETLICFNLFLNSQEKHE [Y34E], the amyloid nucleation score came out at 0.297 ± 0.14. Consider EASNCFAIRHFENKFAVETLICFNLFLNSQEKHG [Y34G], for which the amyloid nucleation score was determined as 0.194 ± 0.098. With EASNCFAIRHFENKFAVETLICFNLFLNSQEKHI [Y34I], the amyloid nucleation score was -0.222 ± 0.16. Next, EASNCFAIRHFENKFAVETLICFNLFLNSQEKHC [Y34C]: 0.316 ± 0.14; EASNCFAIRHFENKFAVETLICFNLFLNSQEKHD [Y34D]: 0.321 ± 0.13; EASNCFAIRHFENKFAVETLICFNLFLNSQEKHP [Y34P]: -0.211 ± 0.18. Regarding EASNCFAIRHFENKFAVETLICFNLFLNSQEKHS [Y34S], the amyloid nucleation score came out at 0.193 ± 0.1. Consider EASNCFAIRHFENKFAVETLICFNLFLNSQEKHQ [Y34Q], for which the amyloid nucleation score came to 0.196 ± 0.2.

Regarding EASNCFAIRHFENKFAVETLICFNLFLNSQEKHN [Y34N], the amyloid nucleation score is -0.386 ± 0.18. Next, EASNCFAIRHFENKFAVETLICFNLFLNSQEKHT [Y34T]: -0.062 ± 0.14. As for EASNCFAIRHFENKFAVETLICFNLFLNSQEKHK [Y34K], the amyloid nucleation score amounted to 0.234 ± 0.17. Next, EASNCFAIRHFENKFAVETLICFNLFLNSQEKHR [Y34R]: 0.398 ± 0.088. The same measure for EASNCFAIRHFENKFAVETLICFNLFLNSQEKHH [Y34H]: 0.0246 ± 0.18; for EASNCFAIRHFENKFAVETLICFNLFLNSQEKWY [H33W]: -0.788 ± 0.17; for EASNCFAIRHFENKFAVETLICFNLFLNSQEKYY [H33Y]: -0.228 ± 0.17.

(Values after the supplement of paper PMC12067230.)
